Source: patent publication US20260116991A1 (HAINAN SIMCERE ZAIMING PHARMACEUTICAL, published 2026)

Legend:
[1] = target: T1, human GPC3 on CHO-K1-human GPC3 cells (CHOK1-hGPC3.2B5) (human, UniProt P51654 25-554); assay: FACS, CHOK1-hGPC3.2B5 cells;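 also: flow cytometry of humanized antibodies binding to the cells over one hour in the cold, read as cell mean fluorescence intensity, with EC50 obtained by curve fitting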
T1 construct: whole, on cells
Procedure: The desired cells were expanded to a logarithmic growth phase in a T-75 cell culture flask, the medium was removed by pipetting, and the cells were washed twice with a PBS buffer, and digested with trypsin. Then a complete medium was added to stop the digestion, and the cells were blown into a single cell suspension. After counting, the cells were centrifuged, and the cell pellet was resuspended with an FACS buffer (PBS+2% fetal bovine serum) to 2×10⁶ cells/mL. The cell resuspension solution was added to a 96-well FACS reaction plate at 50 μl/well, and a humanized antibody sample to be tested was added at 50 μl/well for incubation at 4° C. for 1 h. […] After the plate was centrifuged and washed 3 times with a PBS buffer, 100 μl of the resulting solution was assayed and analyzed by FACS (FACS Canto™, purchased from BD Biosciences). Data analysis was performed by software (FlowJo) to obtain the mean fluorescence intensity (MFI) of the cells. Then, analysis was performed by software (GraphPad Prism8), data were fitted, and EC₅₀ values were calculated.

[2] = target: biotinylated labeled human GPC3 protein (produced in-house) (human, UniProt P51654 25-559, limits assumed, biotinylated (Dojindo, Cat. No. LK03); sites not stated); assay: ELISA, biotinylated human GPC3 protein

Binder	EC50 [1]	Max MFI [1]	OD450 at 0.0004 nM [2]	OD450 at 0.002 nM [2]	OD450 at 0.011 nM [2]	OD450 at 0.056 nM [2]	OD450 at 0.28 nM [2]	OD450 at 1.39 nM [2]	OD450 at 6.94 nM [2]	OD450 at 34.72 nM [2]	OD450 at 0.0008 nM [2]	OD450 at 0.004 nM [2]	OD450 at 0.02 nM [2]	OD450 at 0.11 nM [2]	OD450 at 0.53 nM [2]	OD450 at 2.67 nM [2]	OD450 at 13.33 nM [2]	OD450 at 66.66 nM [2]
hAb007LH1L1d (antibody, human IgG1, V domains shown, Humanized F3.81.19; VH H1 + VL L1d; expressed as human IgG1) VH: EVQLVQSGAEVKKPGSSVKVSCKASGYTFSDYEMHWVRQAPGQGLEWMGTIDPETGNTAYNQKFKGRVTITADKSTSTAYMELSSLRSEDTAVYYCTRPYSLTYWGQGTLVTVSS VL: DIVMTQTPLSLPVTPGEPASISCRSSQSFVHSNSDTYLQWYLQKPGQSPQLLIYKVSNRFSGVPDRFSGSGSGTDFTLKISRVEAEDVGVYYCFQGSHVPYTFGQGTKLEIK	6.28 nM	18200 MFI	0.059 OD450	0.057 OD450	0.101 OD450	0.16 OD450	0.503 OD450	1.1 OD450	1.34 OD450	1.31 OD450								
hAb003LH3L1a (antibody, human IgG1, V domains shown, Humanized F2.154.1; VH H3 + VL L1a; expressed as human IgG1) VH: EVQLVQSGAEVKKPGSSVKVSCKASGYRFTDYEMHWVRQAPGQGLEWMGTIDPETGNTAYTQKFMDRVTLTADKSTSTAYMELSSLRSEDTAVYYCTRGYSFTYWGQGTLVTVSS VL: DIVMTQTPLSLPVTPGEPASISCRSSQNIVHSDGNTYLQWYLQKPGQSPQLLIFKVSNRFSGVPDRFSGSGSGTDFTLKISRVEAEDVGVYYCFQGSHVPFTFGQGTKLEIK	6.02 nM	2240 MFI									0.086 OD450	0.128 OD450	0.423 OD450	1.3 OD450	2.04 OD450	2.13 OD450	2.15 OD450	2.48 OD450
hAb003LH3L1b (antibody, human IgG1, V domains shown, Humanized F2.154.1; VH H3 + VL L1b; expressed as human IgG1) VH: EVQLVQSGAEVKKPGSSVKVSCKASGYRFTDYEMHWVRQAPGQGLEWMGTIDPETGNTAYTQKFMDRVTLTADKSTSTAYMELSSLRSEDTAVYYCTRGYSFTYWGQGTLVTVSS VL: DIVMTQTPLSLPVTPGEPASISCRSSQNIVHSNRNTYLQWYLQKPGQSPQLLIFKVSNRFSGVPDRFSGSGSGTDFTLKISRVEAEDVGVYYCFQGSHVPFTFGQGTKLEIK	0.647 nM	4980 MFI									0.157 OD450	0.381 OD450	1.08 OD450	2 OD450	2.54 OD450	2.44 OD450	2.59 OD450	2.61 OD450
hAb005LH2L1 (antibody, human IgG1, V domains shown, Humanized F3.54.12; VH H2 + VL L1; expressed as human IgG1) VH: EVQLVQSGAEVKKPGASVKVSCKASGYTFTDYEMHWVRQAPGQGLEWMGAIDPETGNTAYIQKFKGRVTLTTDKSTSTAYMELRSLRSDDTAVYYCTRFYSYSHWGQGTTVTVSS VL: DIVMTQTPLSLPVTPGEPASISCRSSQSLVHSNGNTYLHWYLQKPGQSPQLLIYKVSNRFSGVPDRFSGSGSGTDFTLKISRVEAEDVGVYYCSQNTHVPPTFGGGTKVEIK	0.736 nM	4540 MFI									0.083 OD450	0.185 OD450	0.464 OD450	0.812 OD450	1.01 OD450	1.12 OD450	1.12 OD450	1.16 OD450
hAb007LH1L1e (antibody, human IgG1, V domains shown, Humanized F3.81.19; VH H1 + VL L1e; expressed as human IgG1) VH: EVQLVQSGAEVKKPGSSVKVSCKASGYTFSDYEMHWVRQAPGQGLEWMGTIDPETGNTAYNQKFKGRVTITADKSTSTAYMELSSLRSEDTAVYYCTRPYSLTYWGQGTLVTVSS VL: DIVMTQTPLSLPVTPGEPASISCRSSQSFVHSNVDTYLQWYLQKPGQSPQLLIYKVSNRFSGVPDRFSGSGSGTDFTLKISRVEAEDVGVYYCFQGSHVPYTFGQGTKLEIK	10.4 nM	15000 MFI	0.049 OD450	0.05 OD450	0.058 OD450	0.104 OD450	0.248 OD450	0.732 OD450	1.17 OD450	0.921 OD450								
hAb005LH1L1b (antibody, human IgG1, V domains shown, Humanized F3.54.12; VH H1 + VL L1b; expressed as human IgG1) VH: EVQLVQSGAEVKKPGASVKVSCKASGYTFTDYEMHWVRQAPGQGLEWMGAIDPETGNTAYIQKFKGRVTMTTDKSTSTAYMELRSLRSDDTAVYYCTRFYSYSHWGQGTTVTVSS VL: DIVMTQTPLSLPVTPGEPASISCRSSQSLVHSNRNTYLHWYLQKPGQSPQLLIYKVSNRFSGVPDRFSGSGSGTDFTLKISRVEAEDVGVYYCSQNTHVPPTFGGGTKVEIK	0.491 nM	4610 MFI									0.075 OD450	0.172 OD450	0.45 OD450	0.812 OD450	1.04 OD450	1.16 OD450	1.04 OD450	1.13 OD450
hAb005LH1L1 (antibody, human IgG1, V domains shown, Humanized F3.54.12; VH H1 + VL L1; expressed as human IgG1) VH: EVQLVQSGAEVKKPGASVKVSCKASGYTFTDYEMHWVRQAPGQGLEWMGAIDPETGNTAYIQKFKGRVTMTTDKSTSTAYMELRSLRSDDTAVYYCTRFYSYSHWGQGTTVTVSS VL: DIVMTQTPLSLPVTPGEPASISCRSSQSLVHSNGNTYLHWYLQKPGQSPQLLIYKVSNRFSGVPDRFSGSGSGTDFTLKISRVEAEDVGVYYCSQNTHVPPTFGGGTKVEIK	0.563 nM	4500 MFI									0.078 OD450	0.202 OD450	0.442 OD450	0.84 OD450	1.1 OD450	1.17 OD450	1.1 OD450	1.17 OD450
hAb007LH3L1b (antibody, human IgG1, V domains shown, Humanized F3.81.19; VH H3 + VL L1b; expressed as human IgG1) VH: EVQLVQSGAEVKKPGSSVKVSCKASGYTFTDYEMHWVRQAPGQGLEWMGTIDPETGNTAYNQKFKGRVTLTADKSTSTAYMELSSLRSEDTAVYYCTRPYSLTYWGQGTLVTVSS VL: DIVMTQTPLSLPVTPGEPASISCRSSQSFVHSNRDTYLQWYLQKPGQSPQLLIYKVSNRFSGVPDRFSGSGSGTDFTLKISRVEAEDVGVYYCFQGSHVPYTFGQGTKLEIK	7.33 nM	6240 MFI									0.088 OD450	0.112 OD450	0.225 OD450	0.784 OD450	1.8 OD450	2.21 OD450	2.25 OD450	2.29 OD450
hAb007LH2L1b (antibody, human IgG1, V domains shown, Humanized F3.81.19; VH H2 + VL L1b; expressed as human IgG1) VH: EVQLVQSGAEVKKPGSSVKVSCKASGYTFTDYEMHWVRQAPGQGLEWMGTIDPETGNTAYNQKFKGRVTITADKSTSTAYMELSSLRSEDTAVYYCTRPYSLTYWGQGTLVTVSS VL: DIVMTQTPLSLPVTPGEPASISCRSSQSFVHSNRDTYLQWYLQKPGQSPQLLIYKVSNRFSGVPDRFSGSGSGTDFTLKISRVEAEDVGVYYCFQGSHVPYTFGQGTKLEIK	6.16 nM	6040 MFI									0.099 OD450	0.133 OD450	0.297 OD450	0.924 OD450	1.84 OD450	2.2 OD450	2.33 OD450	2.25 OD450
hAb005LH1L1a (antibody, human IgG1, V domains shown, Humanized F3.54.12; VH H1 + VL L1a; expressed as human IgG1) VH: EVQLVQSGAEVKKPGASVKVSCKASGYTFTDYEMHWVRQAPGQGLEWMGAIDPETGNTAYIQKFKGRVTMTTDKSTSTAYMELRSLRSDDTAVYYCTRFYSYSHWGQGTTVTVSS VL: DIVMTQTPLSLPVTPGEPASISCRSSQSLVHSDGNTYLHWYLQKPGQSPQLLIYKVSNRFSGVPDRFSGSGSGTDFTLKISRVEAEDVGVYYCSQNTHVPPTFGGGTKVEIK	315 nM	122 MFI									0.053 OD450	0.05 OD450	0.051 OD450	0.057 OD450	0.056 OD450	0.113 OD450	0.208 OD450	0.558 OD450
hAb007LH3L1 (antibody, human IgG1, V domains shown, Humanized F3.81.19; VH H3 + VL L1; expressed as human IgG1) VH: EVQLVQSGAEVKKPGSSVKVSCKASGYTFTDYEMHWVRQAPGQGLEWMGTIDPETGNTAYNQKFKGRVTLTADKSTSTAYMELSSLRSEDTAVYYCTRPYSLTYWGQGTLVTVSS VL: DIVMTQTPLSLPVTPGEPASISCRSSQSFVHSNGDTYLQWYLQKPGQSPQLLIYKVSNRFSGVPDRFSGSGSGTDFTLKISRVEAEDVGVYYCFQGSHVPYTFGQGTKLEIK	6.98 nM	6760 MFI									0.097 OD450	0.133 OD450	0.323 OD450	0.959 OD450	1.78 OD450	2.11 OD450	2.16 OD450	2.19 OD450
